{"source": "patent US8722856B2", "about": "“Anti-MUC1 antibody” (National University Corporation Hokkaido University, priority 2008, dated 2014)", "molecules": {"B1": {"name": "1B2: mouse monoclonal anti-MUC1 antibody, isotype IgG2a, clone from immunization with 2,3-ST(DT*R)-20 conjugated to BSA (antibody, V domains shown)", "VH": "MEWIWIFLFILSGTAGVQSQVQLQQSGAELARPGASVKLSCKASGYTFTNYGLSWVKQRTGQGLEWIGENHPGSGIIYHNEKFRGKATLTADKSSSTAYVQLSSLTSEDSAVYFCARSSGTRGFAYWGQGTLVTVSA", "VL": "MKLPVRLLVLMFWIPASSSDVLMTQTPLSLPVSLGDQASISCRSSQSIVHSNGNTYLEWYLQKPGQSPKLLIYKVSNRFSGVPDRFSGSGSGTDFTLKISRVEAEDLGVYYCFQGSHGPWTFGGGTKLEIKRA", "modifications": "Antibody 1B2 VH sequence; Antibody 1B2 VL sequence"}}, "key": {"[1]": {"target": "T1, Biotin-2,3-ST(DT*R)-20 (Compound No. 16) (Homo sapiens, UniProt P15941)", "T1 construct": "Synthesis of MUC1 Tn20-mer Glycopeptide; made in house; host or cells: chemical solid-phase synthesis with enzymatic sialylation", "T1 sequence (P15941 136-155)": "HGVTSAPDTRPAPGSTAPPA", "experiment": "Hybridoma screening ELISA (selection of MUC1 antibody)", "format": "binding", "settings": "hybridoma culture supernatant", "description": "Ten days after cell fusion, screening of a specific antibody-producing cell was performed. ELISA was used in screening is as follows. To each well of a 384-well microtiter plate (manufactured by Nunc) 35 μl of a Tris buffer (50 mM Tris-HCl, pH 7.5) containing 0.35 μg of an anti-mouse IgG antibody (manufactured by Shibayagi Co., Ltd.) was added to immobilize the antibody at 4° C. for 16 hours. After these wells were washed with 90 μl of a washing solution (physiological saline containing 0.01% Tween 20) once, 200 μl of BLOCK ACE (manufactured by Dainippon Sumitomo Pharma Co., Ltd.) was added, and this was allowed to stand at room temperature for 2 hours for blocking (an anti-mouse IgG antibody solid-phased plate). […] Then, after each well was washed with 90 μl of a washing solution three times, 25 μl of TMB+-Substrate-Chromogen (manufactured by DAKO) was added to develop a color at room temperature for 30 minutes, 25 μl of 0.05 M sulfuric acid was added to stop the reaction, and absorbance was measured at 450 nm. […] Using a mouse monoclonal antibody isotyping ELISA kit (manufactured by BD Bioscience), a subclass of the antibody was determined and, as a result, an isotype of 1B2 was IgG2a."}, "[2]": {"test_system": "Biotin-Tn(DT*R)-20, -40, -60, -80, -100 (Compound Nos. 17-21)", "experiment": "Tandem repeat dependency ELISA on Streptavidin solid-phased plate", "format": "binding", "description": "To each well of a 384-well microtiter plate (manufactured by Nunc) 35 μl of a Tris buffer (50 mM Tris-HCl, pH 7.5) containing 0.35 μg of Streptavidin (manufactured by PIERCE) was added to perform immobilization at 4° C. for 16 hours. After these wells were washed with 90 μl of a washing solution (physiological saline containing 0.01% Tween 20) once, 200 μl of Block Ace (manufactured by Dainippon Sumitomo Pharma Co., Ltd.) was added, and this was allowed to stand at room temperature for 2 hours, to perform blocking (a Streptavidin solid-phased plate). […] Then, after each well was washed with 90 μl of a washing solution three times, 15 μl of TMB+-Substrate-Chromogen (manufactured by DAKO) was added to develop a color at room temperature for 30 minutes, 15 μl of 0.05 M sulfuric acid was added to stop the reaction, and absorbance at 450 nm was measured. […] Therefore, the antibody of the present invention can be said to have an affinity for Tn-100-mer biotin of lower than 1.0×10^−9 (M), and can be said to have the ability to bind to a Tn20-mer tandem structure fragment. More particularly, it can also be said that the antibody of the present invention has a ratio (A100/A20) of absorbance at 450 nm in the case of use of Tn20-mer biotin (A20) and absorbance at 450 nm in the case of use of Tn100-mer biotin (A100), of 2 or lower."}, "[3]": {"test_system": "biotin-labeled T-47D culture supernatant", "experiment": "Affinity of antibody, Biacore, sensor chip SA", "format": "binding, human", "settings": "biotin-labeled T-47D culture supernatant solid-phased", "description": "In addition, a human breast cancer cultured cell strain T-47D (ATCC Number HTB-133) was cultured on a Dulbecco's modified Eagle medium (DMEM; manufacture by Invitrogen), the supernatant was concentrated with Amicon ultra-100 (manufactured by MILLIPORE), and substituted with a 20 mM HEPES buffer (pH 7.6) containing 0.15 M NaCl. Sulfo-NHS-Biotin (manufactured by PIERCE) was added to 200 μl of the T-47D culture supernatant, followed by reaction on ice for 2 hours. Thereafter, substitution with a 20 mM Tris buffer (pH 7.6) containing 0.15 M NaCl was performed with a PD-10 column (manufactured by GE Healthcare) to obtain a biotin-labeled T-47D culture supernatant."}, "[4]": {"test_system": "human breast cancer cell strain T-47D", "experiment": "Binding of antibody to cancer cell with FACS", "format": "cell-based", "description": "Whether the MUC1 protein expressed on a surface of a cancer cell membrane and the 1B2 antibody bound thereto was investigated by FACS. A human breast cancer cell strain T-47D (ATCC, HTB-133) and a human mammary gland epithelial cell 184A1 (ATCC, CRL-8798) which had been trypsinized with Trypsin (manufactured by Invitrogen) were washed once with a FACS buffer (PBS containing 5% FCS, 0.05% sodium azide), and suspended in 100 μl of a FACS buffer containing 10 μg/ml 1B2 antibody and the reaction was allowed to proceed at room temperature for 2 hours. The resultant reaction product was washed with a FACS buffer two times, and suspended in 200 μl of FITC-Goat Anti-Mouse IgG (manufactured by ZYMED), and the reaction was allowed to proceed at room temperature for 1 hour. After washing with a FACS buffer two times, analysis was performed by FACSAria (manufactured by BD). As a result, in T-47D, the 1B2 antibody greatly shifted the fluorescent signal of FACS (about 300-fold) as compared with a control mouse IgG2a antibody (manufactured by SIGMA-ALDRICH), while in 184A, fluorescent shift by 1B2 was scarcely seen (about 2-fold)."}, "[5]": {"test_system": "human breast cancer cell strains (T-47D)", "procedure": "Antibody-dependant cytotoxicity was analyzed by a chromium release test. Human peripheral mononuclear cell (PBMC) was separated from peripheral blood of a healthy person using Ficoll-paque PLUS (manufactured by GE Healthcare) according to the package insert. DMEM containing 10% FCS was added to the separated PBMC so that the number became 4×10^6/ml.\n50 μl of physiological saline containing 1.85 MBq ^51Cr (manufactured by Perkin Elmer) was added to 200 μl of DMEM containing 1×10^6 human breast cancer cell strains (T-47D) and human mammary gland epithelial cell strains (184A1) and the reaction was allowed to proceed at 37° C. for 1 hour. Thereafter, cells were washed with 10 ml of DMEM three times, and DMEM was added to 5×10^4 cells/ml. […] Thereafter, 100 μl of PBMC was added and the reaction was allowed to proceed at 37° C. for 2 hours. Thereafter, the plate was centrifuged at 500×g for 5 minutes at room temperature and γ-ray of 100 μl of the supernatant was measured with ARC-7001 (manufactured by Aloka). Antibody-specific cytotoxicity (%) was obtained using the following calculation equation. Cytotoxicity(%)=(experimental value−natural release)/(maximum release−natural release)×100"}, "[6]": {"test_system": "normal tissue around a breast cancer", "experiment": "Immunological tissue staining", "design": "species or system human", "settings": "formalin-fixed, paraffin-embedded normal tissue around the breast cancer", "description": "Immunological tissue staining of the 1B2 antibody to a piece of a human breast cancer tissue and a normal tissue around a breast cancer (BioCahin) which had been formalin-fixed and paraffin-embedded was implemented using the Vectastain elite ABC kit (manufactured by Vector Laboratories) and DAB (manufactured by Roche) according to the attached manual."}}}
{"molecule": "B1", "values": [{"measurement": "affinity for 2,3-ST(DT*R)-20 in screening", "setting": "[1]", "value": "strong affinity"}, {"measurement": "reactivity by peptide chain length", "setting": "[2]; Biotin-Tn(DT*R)-40, -60, -80, -100", "value": "approximately the same reactivity"}, {"measurement": "dependency on the length of the tandem repeat", "setting": "[2]; absorbance at 450 nm, 20-mer to 100-mer", "value": "low dependency on a length of the tandem repeat"}, {"measurement": "Kd1", "setting": "[3]", "value": 0.0012, "unit": "s⁻¹"}, {"measurement": "ka1", "setting": "[3]", "value": 470000, "unit": "M⁻¹ s⁻¹"}, {"measurement": "Kd", "setting": "[3]; read-out: dissociation constant KD", "value": 2.6, "unit": "nM"}, {"measurement": "reaction with breast cancer cell (FACS)", "setting": "[4]", "value": "strongly reacts"}, {"measurement": "shift of fluorescent signal of FACS as compared with control mouse IgG2a antibody", "setting": "[4]; 10 μg/ml antibody", "value": "about 300 fold"}, {"measurement": "Antibody-specific cytotoxicity", "setting": "[5]", "value": "about 15%"}, {"measurement": "stained image", "setting": "[6]", "value": "scarcely recognized"}]}
